Results taken from patent US20240174750A1 (VIRTUOSO BINCO, published 2024).
Changes are numbered by the printed parent chain.

B1: hu.18B9.3i (antibody, V domains shown)
VH: EVQLVESGGGLVQPGGSLRLSCAASGFSFNSGYMSWVRQAPGKGLEWIASIYAGSSGKTYYADWAKGRFTISKTSSKTTVYLQMNSLRAEDTAVYYCARDSGGTYYTDYLYLWGQGTLVTVSS
VL: DIQMTQSPSSLSASVGDRVTITCRASEGISSYLSWYQQKPGKAPKLLIYKASTLTSGVPSRFSGSGSGTDFTLTISSLQPEDFATYYCQSTYGSSGSSGYGAAFGGGTKVEIK
notes: Humanised 18B9, parent of the alanine scan; also called hu.18B9.3i antibody
B2: hu.18B9.3i HC_Y100A (antibody, name in Kabat numbering, V domains shown)
VH: B1 VH with Y105A
VL: B1 VL
notes: Alanine scan variant of hu.18B9.3i; Kabat numbering
B3: hu.18B9.3i HC_T100b_A (antibody, V domains shown)
VH: B1 VH with T107A
VL: B1 VL
notes: as for B2
B4: hu.18B9.3i LC_S90A (antibody, name in Kabat numbering, V domains shown)
VH: B1 VH
VL: B1 VL with S90A
notes: as for B2
B5: hu.18B9.3i HC_T99A (antibody, name in Kabat numbering, V domains shown)
VH: B1 VH with T104A
VL: B1 VL
notes: as for B2
B6: hu.18B9.3i LC_G95a_A (antibody, V domains shown)
VH: B1 VH
VL: B1 VL with G96A
notes: as for B2
B7: hu.18B9.3i HC_L102A (antibody, name in Kabat numbering, V domains shown)
VH: B1 VH with L112A
VL: B1 VL
notes: as for B2
B8: hu.18B9.3i LC_Y92A (antibody, name in Kabat numbering, V domains shown)
VH: B1 VH
VL: B1 VL with Y92A
notes: as for B2
B9: hu.18B9.3i LC_T91A (antibody, name in Kabat numbering, V domains shown)
VH: B1 VH
VL: B1 VL with T91A
notes: as for B2
B10: hu.18B9.3i HC_L100e_A (antibody, V domains shown)
VH: B1 VH with L110A
VL: B1 VL
notes: as for B2
B11: hu.18B9.3i LC_S95b_A (antibody, V domains shown)
VH: B1 VH
VL: B1 VL with S97A
notes: as for B2
B12: hu.18B9.3i LC_S95A (antibody, name in Kabat numbering, V domains shown)
VH: B1 VH
VL: B1 VL with S95A
notes: as for B2
B13: hu.18B9.3i HC_S96A (antibody, name in Kabat numbering, V domains shown)
VH: B1 VH with S101A
VL: B1 VL
notes: as for B2
B14: hu.18B9.3i LC_S95c_A (antibody, V domains shown)
VH: B1 VH
VL: B1 VL with S98A
notes: as for B2
B15: hu.18B9.3i LC_Q89A (antibody, name in Kabat numbering, V domains shown)
VH: B1 VH
VL: B1 VL with Q89A
notes: as for B2
B16: hu.18B9.3i LC_Y95e_A (antibody, V domains shown)
VH: B1 VH
VL: B1 VL with Y100A
notes: as for B2
B17: hu.18B9.3i HC_Y100a_A (antibody, V domains shown)
VH: B1 VH with Y106A
VL: B1 VL
notes: as for B2
B18: hu.18B9.3i LC_G93A (antibody, name in Kabat numbering, V domains shown)
VH: B1 VH
VL: B1 VL with G93A
notes: as for B2
B19: hu.18B9.3i LC_G95d_A (antibody, V domains shown)
VH: B1 VH
VL: B1 VL with G99A
notes: as for B2
B20: hu.18B9.3i LC_S94A (antibody, name in Kabat numbering, V domains shown)
VH: B1 VH
VL: B1 VL with S94A
notes: as for B2
B21: hu.18B9.3i LC_G95f_A (antibody, V domains shown)
VH: B1 VH
VL: B1 VL with G101A
notes: as for B2
B22: M.69H1H9 (antibody, human IgG1, kappa, V domains shown)
VH: EVQLQQSGPELVKPGASVKMSCKTSGYTFTEYTIHWVKQSHEKSLEWIGSINPNNGLFRYNQKFKGKATLTVDKSSSTAYMELRSLTSEDSAVYYCARDYGFGYSDYWGQGTTLTVSS
VL: DIQMIQSPSSMFASLGDRVSLSCRASQGIRGNLDWYQQKPGGTIKLLIYSTSNLNSGVPSRFSGSGSGSDYSLTISSLESEDFADYYCLQRNAFPWTFGGGTKLEIKR
notes: Chimeric: mouse variable domains, human IgG1 and human kappa constant regions
B23: R.13A2 (antibody, human IgG1, kappa, V domains shown)
VH: QSLEESGGDLVKPGASLTVTCTASGFSFSSYYYVCWVRQAPGKGLEWIACIYAGSSGDTYYASWAKGRFTISKTSSTTVTLQMTSLTAADTATYFCARGYTGYSYQFNFWGPGTLVTVSS
VL: DVVMTQTPASVEAAVGGTVTIKCQASQSISNELSWYQQKPGQPPKLLIYRASTLESGVPSRFKGSGSGTEFTLTISDLESADAATYYCQCTYITYGNAFGGGTEVVVKR
notes: Chimeric: rabbit variable domains, human IgG1 and human kappa constant regions
B24: M.95D4A11 (antibody, human IgG1, kappa, V domains shown)
VH: QVQLQQPGAELVRPGASVKLSCKASGYTFTSYWMNWVKQRPEQGLEWIGSIDPYDSETHYNQKFKDKAILTVDKSSSTAYMQLSSLTSEDSAVYYCARGRGYAMDYWGQGTSVTVSS
VL: DIQMTQSPASLSASVGETVTITCRASGNIHNYLAWYQQKQGKSPQLLVYNAKTLADGVPSRFSGSGSGTQYSLKINSLQPEDFGSYYCQHFWSTPPTFGGGTKLEIKR
notes: as for B22
B25: R.20H1 (antibody, human IgG1, kappa, V domains shown)
VH: QEQLVESGGGLVKPGASLTLTCKASGFSFSSGYYMCWVRQAPGKGLEWIGCIYVRSDSTYYASWAKGRFTISKASSTTVTLQMTSLTAADTATYFCARGVTGDSYRFNFWGPGTLVTVSS
VL: DVVMTQTPASVEAAVGGTVTIKCQASQSISNELSWYQQKSGQPPKLLIYRASTLESGVPSRFKGSGSGTEFTLTISDLESADAATYYCQSTYYGTSYGNAFGGGTEVVVKR
notes: as for B23
B26: M.20B10E9 (antibody, human IgG1, kappa, V domains shown)
VH: EVQLQQSGAELVRPGASVKLSCTASGFNIEDTYMHWVKQRPEQGLEWIGRIDPANGKTKSDPKFQGKATITTDTSSNTAYLQLSSLTSEDTAVYYCAKGDGYYVGGLDYWGQGTTLTVSS
VL: DIQMNQSPSSLSASLGDTITITCHASQNIHVWLSWYQQKPGNIPKLLIYKASNLHTGVPSRFSGSGSGTGFTLTISSLQPEDIATYYCQQGQSYPYTFGGGTKLEIKR
notes: as for B22
B27: M.30A5C6 (antibody, human IgG1, kappa, V domains shown)
VH: B26 VH with R13K, K57N, S60Y, I70V, T72A, Y95C, K98R, Y102H, D108N, T115S
VL: B26 VL with H30N, S93N
notes: as for B22
B28: R.1H3 (antibody, human IgG1, kappa, V domains shown)
VH: QSLEESGGDLVKPGASLTLTCTASGFSFSSGYYMCWVRQAPGKGLEWIACIYMRSGDTYLASWAKGQFTISKTSSTTVTLQMTSLTAADTATYFCGRGGTSYALNLWGQGTLVTVSS
VL: DVVMTQTPASVSEPVGGTVTINCQASQSISNECSWYQQKPGQPPKLLIYRASTLESGVPSRFSGSGSGTEFTLTISDLESADAATYYCQSTYYGTTGNTFGGGTEVVVKR
notes: as for B23
B29: R.19H7 (antibody, human IgG1, kappa, V domains shown)
VH: QEQLKESGGGLVTPGGTLTLTCTASGFTISSYHMCWVRQAPGKGLEWIGCIYPNNDFTWYATWAKGRFTISKTSSTTVDLRMTTPTTEETATYFCARASGNAYNLLDLWGQGTLVTVSS
VL: AIVMTQTPASVSVAVGGSVTINCQSSESVYRDNCLGWFQQKPGQPPKLLIYRASTLASGVPSRFKGSGSGTQFTLTISDVVSDDAATYYCAGYKSTITDGTAFGGGTEVVVKR
notes: as for B23
B30: R.1B11 (antibody, human IgG1, kappa, V domains shown)
VH: QSLEESGGRLVTPGTPLTLTCTASGFSLNSYHMSWVRQAPGEGLEWIGIIYADTGNADYASWTKGRFTISKASTTVELRITSPTSEDTATYFCARGPTNTYPTYFALWGPGTLVTVSS
VL: AFELTQTPSSVEAAVGGTVTIKCQASQSITTYLAWYQQKPGQPPKLLIYGASNLESGVPSRFKGSRSGTEYTLTISDLESADAATYYCQSYYAISKSAFGGGTEVVVKR
notes: as for B23
B31: R.9B11 (antibody, human IgG1, kappa, V domains shown)
VH: QEQLEESGGDLVKPEGSLTLTCTASGFSFSSYWMAWVRQAPGKGLEWIACIYIGSGSGTTYYASWAKGRFTISKTSSTTVTLQMTSLTAADTAIYFCARWAGSDGHFTLWGPGTLVTVSL
VL: ALVMTQTPASVEAAVGGTVTINCQASQSINNLLAWYQQKPGQRPKLLIYDASDLASGVSSRFKGSGSGTEYTLTISGVQSADAATYYCQGYFYGSSVDLVFGGGTEVVVKR
notes: as for B23

biological target: T1, extracellular domain (ECD) of human CD47 (19aa-139aa) with C-terminal 6xHis tag (human, UniProt Q08722 19-139); assay: ELISA, recombinant human CD47; EC50 as grade, legend the 11th table, row 38
T1 construct: also called recombinant CD47; recombinant human CD47

Q: How did the EC50 turn out when B1 was run?
A: 0.01 to 0.5 nM

Q: How did the EC50 turn out when B2 was run?
A: 0.01 to 0.5 nM

Q: With B3 as the binder, how does the EC50 read?
A: 0.01 to 0.5 nM

Q: Which EC50 does the source give for B4 here?
A: 0.01 to 0.5 nM

Q: Which EC50 does the source give for B5 here?
A: 0.01 to 0.5 nM

Q: B6 was tested. Which EC50 did it give?
A: 0.01 to 0.5 nM

Q: B7 was tested. Which EC50 did it give?
A: 0.01 to 0.5 nM

Q: How did the EC50 turn out when B8 was run?
A: 0.01 to 0.5 nM

Q: For B9, which EC50 is on record?
A: 0.01 to 0.5 nM

Q: Which EC50 does the source give for B10 here?
A: > 5 nM

Q: With B11 as the binder, how does the EC50 read?
A: 0.01 to 0.5 nM

Q: How did the EC50 turn out when B12 was run?
A: 0.01 to 0.5 nM

Q: For B13, which EC50 is on record?
A: 0.5 to 5 nM

Q: With B14 as the binder, how does the EC50 read?
A: 0.01 to 0.5 nM

Q: Which EC50 does the source give for B15 here?
A: 0.5 to 5 nM

Q: Which EC50 does the source give for B16 here?
A: 0.01 to 0.5 nM

Q: Which EC50 does the source give for B17 here?
A: 0.01 to 0.5 nM

Q: How did the EC50 turn out when B18 was run?
A: 0.01 to 0.5 nM

Q: With B19 as the binder, how does the EC50 read?
A: 0.01 to 0.5 nM

Q: For B20, which EC50 is on record?
A: 0.01 to 0.5 nM

Q: With B21 as the binder, how does the EC50 read?
A: 0.01 to 0.5 nM

biological target: T1, extracellular domain (ECD) of human …; assay: ELISA, coated recombinant CD47; EC50 as grade, legend the 6th table, row 26
Method: A 96-well plate was coated overnight at 4° C. with 1 μg/ml recombinant CD47. After washing 3 times, the plate was blocked with 300 μL 1% BSA in PBST at 37° C. for 1 hour. Serially diluted antibodies were added and incubated at 37° C. for 1 hour. The plate was then washed 4 times with PBST and incubated with 1:5000 diluted 2nd antibody (Sigma, Cat #A0293) at 37° C. for 1 hour.

Q: For B22, which EC50 is on record?
A: 0.01 to 0.1 nM

Q: Which EC50 does the source give for B23 here?
A: > 0.5 nM

Q: How did the EC50 turn out when B24 was run?
A: 0.01 to 0.1 nM

Q: For B25, which EC50 is on record?
A: 0.1 to 0.5 nM

Q: Which EC50 does the source give for B26 here?
A: 0.01 to 0.1 nM

Q: B27 was tested. Which EC50 did it give?
A: 0.01 to 0.1 nM

Q: With B28 as the binder, how does the EC50 read?
A: > 0.5 nM

Q: With B29 as the binder, how does the EC50 read?
A: 0.1 to 0.5 nM

Q: How did the EC50 turn out when B30 was run?
A: 0.01 to 0.1 nM

Q: B31 was tested. Which EC50 did it give?
A: 0.01 to 0.1 nM

biological target: T2, CD47 on the surface of CD47+ cells (human, UniProt Q08722 19-323); assay: flow cytometry, competition with SIRPA-mIgG2a on CD47+ tumor cells; IC50 as grade, legend the 8th table, row 26
T2 construct: whole, on cells; also called CD47+ cell lines; CD47 on Raji cells, HCT-15 cells, human red blood cells (RBCs), human platelets
Method: Tumor cells were harvested, centrifuged, and then resuspended in FACS buffer (PBS plus 2% FBS) at a concentration of 2×10⁶ cells/mL. 100 μL of the cell suspension was dispensed into each well of a 96-well plate. The plate was centrifuged for 5 min and 300×g, and the supernatants were discarded. […] After washing twice with FACS buffer, the plates were resuspended with 300 μL FACS buffer and analyzed by flow cytometry.

Q: Which IC50 does the source give for B22 here?
A: 0.1 to 1 nM

Q: How did the IC50 turn out when B23 was run?
A: 0.1 to 1 nM

Q: How did the IC50 turn out when B24 was run?
A: 0.1 to 1 nM

Q: How did the IC50 turn out when B25 was run?
A: 0.1 to 1 nM

Q: How did the IC50 turn out when B26 was run?
A: 0.1 to 1 nM

Q: B27 was tested. Which IC50 did it give?
A: 0.1 to 1 nM

Q: B28 was tested. Which IC50 did it give?
A: 0.1 to 1 nM

Q: For B29, which IC50 is on record?
A: 1 to 5 nM

Q: With B30 as the binder, how does the IC50 read?
A: 0.1 to 1 nM

Q: Which IC50 does the source give for B31 here?
A: 1 to 5 nM

biological target: T2, CD47 on the surface of CD47+ cells; assay: flow cytometry on CD47+ cell lines; EC50 as grade, legend the 7th table, row 26
Method: Antibody binding to CD47+ cell lines was quantified by flow cytometry. Harvested cells were centrifuged at 2000 rpm for 5 min, resuspended in 10-15 mL ice-cold culture medium, and then counted. Cells were resuspended in blocking buffer (PBS plus 2% FBS) at a concentration of 3×10⁶ cells/mL. 100 μL of the cell suspension was dispensed into each well of a 96-well plate. Purified antibodies were diluted to the desired concentrations with blocking buffer and 100 μL of diluted antibodies were added to the well and incubated for 1 hour at 4° C. The cells were then washed 3 times with PBS plus 2% FBS. […] The cells were then washed 3 times with 200 μL PBS by centrifuging at 2000 rpm for 5 min. After the last wash, the cells were resuspended in 300 μL cold PBS and analyzed on a FACSVerse™ (BD Biosciences) flow cytometer.

Q: B22 was tested. Which EC50 did it give?
A: 0.1 to 0.5 nM

Q: With B23 as the binder, how does the EC50 read?
A: 0.5 to 5 nM

Q: How did the EC50 turn out when B24 was run?
A: 0.1 to 0.5 nM

Q: With B25 as the binder, how does the EC50 read?
A: 0.1 to 0.5 nM

Q: B26 was tested. Which EC50 did it give?
A: 0.1 to 0.5 nM

Q: B27 was tested. Which EC50 did it give?
A: 0.1 to 0.5 nM

Q: How did the EC50 turn out when B28 was run?
A: 0.1 to 0.5 nM

Q: With B29 as the binder, how does the EC50 read?
A: 0.1 to 0.5 nM

Q: B30 was tested. Which EC50 did it give?
A: 0.1 to 0.5 nM

Q: For B31, which EC50 is on record?
A: 0.5 to 5 nM
